Data reported in US20220064272A1.

Experiments:
[1] = biological target: TauC3 (C-terminally truncated tau fragment ending at aspartate 421 of htau40) (human) (UniProt P10636); assay: binding ELISA on coated TauC3, OD650; left table (HC variants); isotype control
[2] = biological target: TauC3 (C-terminally truncated tau fragment ending at aspartate 421 of htau40) (human) (UniProt P10636); assay: binding ELISA on coated TauC3, OD650; right table (HM variants); isotype control

Sequence of TauC3 (C-terminally truncated tau fragment ending at aspartate 421 of htau40) (human) (P10636 other isoform, or with tags, fused parts or gaps): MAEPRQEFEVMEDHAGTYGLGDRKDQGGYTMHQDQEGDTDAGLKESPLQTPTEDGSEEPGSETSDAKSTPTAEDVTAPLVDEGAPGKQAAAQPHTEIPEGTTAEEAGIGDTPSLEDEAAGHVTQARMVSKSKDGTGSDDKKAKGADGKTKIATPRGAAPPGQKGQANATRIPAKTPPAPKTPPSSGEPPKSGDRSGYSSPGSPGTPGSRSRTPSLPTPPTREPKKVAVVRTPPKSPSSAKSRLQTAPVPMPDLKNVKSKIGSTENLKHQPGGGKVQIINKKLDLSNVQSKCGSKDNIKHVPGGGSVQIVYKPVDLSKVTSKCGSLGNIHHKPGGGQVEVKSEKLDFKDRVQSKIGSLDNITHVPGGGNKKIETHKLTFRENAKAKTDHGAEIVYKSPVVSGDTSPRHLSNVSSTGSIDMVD

EC50 [1]: 15.5 nM
EC50 [2]: 15.5 nM
Substance: isotype control antibody
